Data taken from the supplement of paper PMC6379048.

How the values were obtained:
HNRNPK = HNRNPK (UniProt P61978); assay: Kd (EC50 corrected by depletion factor)
Method in brief: (§1)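 To obtain EC50, data were fitted with a four-parameter log-logistic model; Kd was then EC50 multiplied by a protein-dependent depletion factor. Beforehand, free RNA oligos (0 nM to 30 μM) were pre-incubated with HEK293-FT lysate (2.5 mg protein/well) for 1 h at 4°C. The lysate then spent 30 min at 4°C with the same 5′-amino-C6 oligos coupled to NHS-Sepharose beads, and bound proteins were quantified by label-free LC-MS/MS, normalised to the control.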

MRPL38 = MRPL38 (UniProt Q96DV4); assay: EC50 of free RNA motif oligo competing protein binding to immobilised probe
Method in brief: as §1

PUF60 = biological target: T1, PUF60 (UniProt Q9UHX1); assay: Kd (EC50 corrected by depletion factor)
T1 sequence: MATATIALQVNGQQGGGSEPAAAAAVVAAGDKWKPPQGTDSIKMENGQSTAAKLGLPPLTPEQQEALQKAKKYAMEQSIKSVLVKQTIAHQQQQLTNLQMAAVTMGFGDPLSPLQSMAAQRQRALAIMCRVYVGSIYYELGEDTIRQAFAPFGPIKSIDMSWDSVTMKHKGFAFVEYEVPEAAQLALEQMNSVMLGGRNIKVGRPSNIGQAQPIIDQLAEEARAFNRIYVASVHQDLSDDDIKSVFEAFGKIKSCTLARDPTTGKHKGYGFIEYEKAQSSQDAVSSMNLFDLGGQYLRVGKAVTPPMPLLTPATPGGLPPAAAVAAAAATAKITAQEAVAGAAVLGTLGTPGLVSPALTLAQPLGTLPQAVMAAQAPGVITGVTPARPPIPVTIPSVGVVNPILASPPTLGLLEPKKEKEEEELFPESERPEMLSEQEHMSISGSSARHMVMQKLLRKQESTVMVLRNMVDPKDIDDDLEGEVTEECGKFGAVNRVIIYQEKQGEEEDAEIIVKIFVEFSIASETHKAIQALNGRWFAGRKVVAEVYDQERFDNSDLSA
Method in brief: as §1

SRSF11 = biological target: T2, SRSF11 (UniProt Q05519); assay: Kd (EC50 corrected by depletion factor)
T2 sequence: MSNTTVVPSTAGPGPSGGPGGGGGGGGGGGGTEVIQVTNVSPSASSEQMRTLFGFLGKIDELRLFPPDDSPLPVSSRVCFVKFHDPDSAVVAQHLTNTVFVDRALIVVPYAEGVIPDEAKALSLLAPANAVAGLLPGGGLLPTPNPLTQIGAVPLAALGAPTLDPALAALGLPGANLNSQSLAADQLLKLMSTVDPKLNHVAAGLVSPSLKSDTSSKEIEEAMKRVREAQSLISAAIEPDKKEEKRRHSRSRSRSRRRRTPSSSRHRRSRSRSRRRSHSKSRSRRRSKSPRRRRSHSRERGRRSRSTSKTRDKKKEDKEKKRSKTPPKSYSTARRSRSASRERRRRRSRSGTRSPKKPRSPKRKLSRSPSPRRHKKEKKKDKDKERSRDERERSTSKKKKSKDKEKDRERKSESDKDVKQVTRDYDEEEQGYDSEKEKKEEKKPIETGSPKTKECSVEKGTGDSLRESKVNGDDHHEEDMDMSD
Method in brief: as §1

TIA1 = biological target: T3, TIA1 (UniProt P31483); assay: Kd (EC50 corrected by depletion factor)
T3 sequence: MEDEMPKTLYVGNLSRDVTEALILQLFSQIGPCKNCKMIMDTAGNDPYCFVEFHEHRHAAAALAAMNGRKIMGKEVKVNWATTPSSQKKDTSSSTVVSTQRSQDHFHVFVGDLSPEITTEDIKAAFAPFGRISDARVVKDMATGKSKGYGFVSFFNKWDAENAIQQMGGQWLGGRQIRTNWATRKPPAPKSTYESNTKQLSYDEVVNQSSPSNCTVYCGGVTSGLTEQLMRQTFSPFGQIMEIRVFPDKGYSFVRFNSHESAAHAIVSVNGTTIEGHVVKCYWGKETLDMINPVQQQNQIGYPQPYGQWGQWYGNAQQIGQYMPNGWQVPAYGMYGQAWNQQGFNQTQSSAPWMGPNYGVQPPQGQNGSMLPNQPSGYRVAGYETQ
Method in brief: as §1

TUBB4B = TUBB4B (UniProt P68371); assay: EC50 of free RNA motif oligo competing protein binding to immobilised probe
Method in brief: as §1

CNBP = CNBP (UniProt P62633); assay: Kd (EC50 corrected by depletion factor)
Method in brief: as §1

MRPS34 = MRPS34 (UniProt P82930); assay: Kd (EC50 corrected by depletion factor)
Method in brief: as §1

CSTF2T = biological target: T4, CSTF2T (UniProt Q9H0L4); assay: EC50 of free RNA motif oligo competing protein binding to immobilised probe
T4 sequence: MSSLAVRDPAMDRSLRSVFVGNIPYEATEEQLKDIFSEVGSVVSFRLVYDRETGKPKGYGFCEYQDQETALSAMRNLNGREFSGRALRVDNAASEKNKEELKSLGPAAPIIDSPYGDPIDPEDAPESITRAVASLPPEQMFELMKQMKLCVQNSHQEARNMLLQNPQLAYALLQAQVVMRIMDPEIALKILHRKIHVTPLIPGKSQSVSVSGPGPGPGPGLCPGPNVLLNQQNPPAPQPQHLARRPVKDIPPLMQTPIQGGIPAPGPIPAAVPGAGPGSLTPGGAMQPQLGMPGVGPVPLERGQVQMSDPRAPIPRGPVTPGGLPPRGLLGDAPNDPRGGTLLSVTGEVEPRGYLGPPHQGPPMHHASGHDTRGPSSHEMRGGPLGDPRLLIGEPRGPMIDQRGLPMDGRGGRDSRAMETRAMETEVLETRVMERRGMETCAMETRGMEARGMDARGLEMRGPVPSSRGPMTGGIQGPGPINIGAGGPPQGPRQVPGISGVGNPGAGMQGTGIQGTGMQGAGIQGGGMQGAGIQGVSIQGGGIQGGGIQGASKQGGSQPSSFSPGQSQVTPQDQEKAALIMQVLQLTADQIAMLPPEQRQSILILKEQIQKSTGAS
Method in brief: as §1

CNBP, sequence (P62633 whole entry): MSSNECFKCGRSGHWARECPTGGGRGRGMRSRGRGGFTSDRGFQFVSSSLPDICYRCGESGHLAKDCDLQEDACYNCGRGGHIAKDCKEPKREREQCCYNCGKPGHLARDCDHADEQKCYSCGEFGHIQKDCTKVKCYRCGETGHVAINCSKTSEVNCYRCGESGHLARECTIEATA
TUBB4B, sequence (P68371 whole entry): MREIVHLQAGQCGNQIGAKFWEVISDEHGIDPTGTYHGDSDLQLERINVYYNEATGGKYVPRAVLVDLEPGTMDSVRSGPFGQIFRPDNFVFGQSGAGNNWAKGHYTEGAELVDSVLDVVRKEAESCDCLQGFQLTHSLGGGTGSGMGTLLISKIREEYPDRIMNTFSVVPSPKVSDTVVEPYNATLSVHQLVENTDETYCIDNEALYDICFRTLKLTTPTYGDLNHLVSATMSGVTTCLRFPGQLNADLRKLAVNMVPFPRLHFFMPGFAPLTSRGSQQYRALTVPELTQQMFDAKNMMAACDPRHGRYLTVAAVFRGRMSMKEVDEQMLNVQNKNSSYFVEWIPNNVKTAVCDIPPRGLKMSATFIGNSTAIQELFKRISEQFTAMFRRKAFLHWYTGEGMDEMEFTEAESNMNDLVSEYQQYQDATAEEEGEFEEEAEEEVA

CUGUCCU
Kd (HNRNPK): 1630 nM
EC50 (MRPL38): 119 nM

AAUAAA
Kd (PUF60): 162 nM
Kd (SRSF11): 126 nM
Kd (TIA1): 158 nM
EC50 (TUBB4B): 1410 nM

UAUUUAU
Kd (CNBP): 1270 nM
Kd (MRPS34): 46.2 nM
EC50 (CSTF2T): 357 nM
